B1: DNA polymerase alpha catalytic subunit (Mus musculus), P33609 (parent)
chain: MAPMHEEDCKLEASAVSDSGSFAASRARREKKSKKGRQEALERLKKAKAGEKYKYEVEDLTSVYEEVDEEQYSKLVQARQDDDWIVDDDGIGYVEDGREIFDDDLEDDALDTCGKGSDGKAHRKDRKDVKKPSVTKPNNIKAMFIASAGKKTTDKAVDLSKDDLLGDILQDLNTETAQITPPPVLIPKKKRSTGALLNPFSVHTPKAIPSGKPASPVLRNEPLLTPIPLKRAELAGELAQPECPEDEQELGVMEFEDGDFDESMDTEKVDEKPVTAKTWDQETEPVERVEHEADPERGTTSYLENFLPDVSCWDIDQDDESIPQEVQVDSSNLPLVKGADDEQVFQFYWLDAYEDPYNQPGVVFLFGKVWIESVKTHVSCCVMVKNIERTLYFLPREMKFDLNTGKETAIPVTMKDVYEEFDSKISAKYKIMKFKSKIVEKNYAFEIPDVPEKSEYLEVRYSAEVPQLPQNLKGETFSHVFGTNTSSLELFLMNRKIKGPCWLEVKNPQLLNQPISWCKFEVMALKPDLVNVIKDVSPPPLVVMSFSMKTMQNVQNHQHEIIAMAALVHHSFALDKAPPEPPFQTHFCVVSKPKDCIFPCDFKEVISKKNMKVEIAATERTLIGFFLAKVHKIDPDILVGHNICSFELEVLLQRINECKVPYWSKIGRLRRSNMPKLGSRSGFGERNATCGRMICDVEISAKELIHCKSYHLSELVQQILKTERIVIPTENIRNMYSESSYLLYLLEHIWKDARFILQIMCELNVLPLALQITNIAGNIMSRTLMGGRSERNEFLLLHAFYENNYIVPDKQIFRKPQQKLGDEDEEIDGDTNKYKKGRKKATYAGGLVLDPKVGFYDKFILLLDFNSLYPSIIQEFNICFTTVQRVTSEVQKATEDEEQEQIPELPDPNLEMGILPREIRKLVERRKQVKQLMKQQDLNPDLVLQYDIRQKALKLTANSMYGCLGFSYSRFYAKPLAALVTYKGREILMHTKDMVQKMNLEVIYGDTDSIMINTNSTNLEEVFKLGNKVKSEVNKLYKLLEIDIDAVFKSLLLLKKKKYAALVVEPTSDGNYITKQELKGLDIVRRDWCDLAKDTGNFVIGQILSDQSRDTIVENIQKRLIEIGENVLNGSVPVSQFEINKALTKDPQDYPDRKSLPHVHVALWINSQGGRKVKAGDTVSYVICQDGSNLTATQRAYAPEQLQKLDNLAIDTQYYLAQQIHPVVARICEPIDGIDAVLIALWLGLDSTQFRVHQYHKDEENDALLGGPAQLTDEEKYKDCEKFKCLCPSCGTENIYDNVFEGSGLDMEPSLYRCSNVDCKVSPLTFMVQLSNKLIMDIRRCIKKYYDGWLICEEPTCCSRLRRLPLHFSRNGPLCPVCMKAVLRPEYSDKSLYTQLCFYRYIFDADCALEKLTEHEKDKLKKQFFPLRVLQDYRKVKNIAEQFLSWSGYSEVNLSKLFANYAGKS
partner: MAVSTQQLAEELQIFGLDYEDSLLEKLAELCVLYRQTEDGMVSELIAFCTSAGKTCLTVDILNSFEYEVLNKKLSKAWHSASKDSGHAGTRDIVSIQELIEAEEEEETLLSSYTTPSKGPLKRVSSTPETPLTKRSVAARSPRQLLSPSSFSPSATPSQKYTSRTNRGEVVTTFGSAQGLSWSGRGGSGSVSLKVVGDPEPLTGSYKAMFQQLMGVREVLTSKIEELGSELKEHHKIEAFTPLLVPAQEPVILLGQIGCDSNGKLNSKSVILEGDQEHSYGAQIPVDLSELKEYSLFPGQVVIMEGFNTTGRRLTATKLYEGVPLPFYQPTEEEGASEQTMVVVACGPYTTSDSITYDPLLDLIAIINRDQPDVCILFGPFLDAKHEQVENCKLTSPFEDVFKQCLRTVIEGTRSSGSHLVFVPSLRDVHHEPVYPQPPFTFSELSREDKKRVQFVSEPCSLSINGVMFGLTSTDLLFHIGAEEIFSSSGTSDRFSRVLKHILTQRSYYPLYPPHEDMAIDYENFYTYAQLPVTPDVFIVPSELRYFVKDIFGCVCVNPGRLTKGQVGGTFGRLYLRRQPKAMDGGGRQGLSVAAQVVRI

Variants of: B1
Settings: with dpoa2_mouse Pola2, P33611

| Variant | effect of a mutation on the interaction |
| --- | --- |
| C1375A;C1378A | decreasing interaction |
| C1287A;C1290A | decreasing interaction |
